# Earlier results, collected in PMC3962080.
# Biological target: human serum albumin (Homo sapiens) (UniProt P02768)
substance,measurement,value
G148-ABD albumin-binding domain (from UniProt P06654),Kd,5 nM
